Measurements taken from the supplement of paper PMC7877785.
± gives the uncertainty stated by the source.

Experiment: self-splicing fitness, log relative to wild type (ln ratio); higher = more splicing; Tetrahymena group I intron in knt gene, E. coli kanamycin selection, DiMSum; sequences stand for … in CUCUCU…GGAGGGAAAAGUUAUCAGGCAUGCACCUGGUAGCUAGUCUUUAAACCAAUAGAUUGCAUCGGUUUAAAAGGCAAGACCGUCAAAUUGCGGGAAAGGGGUCAACAGCCGUUCAGUACCAAGUCUCAGGGGAAACUUUGAGAUGGCCUUGCAAAGGGUAUGGUAAUAAGCUGACGGACAUGGUCCUAACCACGCAGCCAAGUCCUAAGUCAACAGAUCUUCUGUUGAUAUGGAUGCAGUUCACAGACUAAAUGUCGGUCGGGGAAGAUGUAUUCUUCUCAUAAGAUAUAGUCGGACCUCUCCUUAAUGGGAGCUAGCGGAUGAAGUGAUGCAACACUGGAGCCGCUGGGAACUAAUUUGUAUGCGAAAGUAUAUUGAUUAGUUUUGGAGUACUCGUGGUCG
Procedure, shortened: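 Six replicate transformations of E. coli BL21(DE3) with a pET-22b(+) library were grown overnight at 37°C or 30°C. The library randomised all eight P1ex-region intron nucleotides, the intron lying in the knt kanamycin-resistance gene, and plates were LB agar with or without 25 μg/mL kanamycin plus 100 μg/mL carbenicillin, 50 μM IPTG and 0.2% rhamnose. Pooled colonies were amplicon-sequenced on an Illumina HiSeq 2500, and fitness is the DiMSum error-weighted combination of wild-type-normalised replicate fold changes, kanamycin versus none.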

## CUCUAGCAAUAUUACGGCAG
30 °C
  self-splicing fitness (ln): -2.41 ± 0.28
37 °C
  self-splicing fitness (ln): -2.72 ± 0.44

## CUCUAGCAAUAUUACGGGCA
30 °C
  self-splicing fitness (ln): -2.62 ± 0.23
37 °C
  self-splicing fitness (ln): -2.29 ± 0.23

## CUCUAGCAAUAUUACGGGCG
30 °C
  self-splicing fitness (ln): -2.25 ± 0.17
37 °C
  self-splicing fitness (ln): -2.36 ± 0.19

## CUCUAGCAAUAUUACGUACA
30 °C
  self-splicing fitness (ln): -3.04 ± 0.38
37 °C
  self-splicing fitness (ln): -1.89 ± 0.24

## CUCUAGCAAUAUUACGUAUG
30 °C
  self-splicing fitness (ln): -3.02 ± 0.21
37 °C
  self-splicing fitness (ln): -1.61 ± 0.15

## CUCUAGCAAUAUUACGUCAG
30 °C
  self-splicing fitness (ln): -2.85 ± 0.23
37 °C
  self-splicing fitness (ln): -2.34 ± 0.32

## CUCUAGCAAUAUUACGUCCG
30 °C
  self-splicing fitness (ln): -2.91 ± 0.18
37 °C
  self-splicing fitness (ln): -0.955 ± 0.14

## CUCUAGCAAUAUUACGUCCU
30 °C
  self-splicing fitness (ln): -2.87 ± 0.39

## CUCUAGCAAUAUUACGUGAG
30 °C
  self-splicing fitness (ln): -3.45 ± 0.18
37 °C
  self-splicing fitness (ln): -2.12 ± 0.19

## CUCUAGCAAUAUUACGUGUU
30 °C
  self-splicing fitness (ln): -3.44 ± 0.15
37 °C
  self-splicing fitness (ln): -2.39 ± 0.12

## CUCUAGCAAUAUUACGUUCG
30 °C
  self-splicing fitness (ln): -3.54 ± 0.19
37 °C
  self-splicing fitness (ln): -2.33 ± 0.18

## CUCUAGCAAUAUUACGUUGG
30 °C
  self-splicing fitness (ln): -3.9 ± 0.22
37 °C
  self-splicing fitness (ln): -2.92 ± 0.23

## CUCUAGCAAUAUUACGUUUG
30 °C
  self-splicing fitness (ln): -3.43 ± 0.13
37 °C
  self-splicing fitness (ln): -2.27 ± 0.14

## CUGAAGCAAUAUUACGAAUG
30 °C
  self-splicing fitness (ln): -0.544 ± 0.083
37 °C
  self-splicing fitness (ln): 0.252 ± 0.12

## CUGAAGCAAUAUUACGACCU
30 °C
  self-splicing fitness (ln): -3.63 ± 0.4
37 °C
  self-splicing fitness (ln): -3.1 ± 0.18

## CUGAAGCAAUAUUACGAGCU
30 °C
  self-splicing fitness (ln): -3.42 ± 0.21
37 °C
  self-splicing fitness (ln): -2.84 ± 0.27

## CUGAAGCAAUAUUACGAGGC
30 °C
  self-splicing fitness (ln): -3.15 ± 0.17
37 °C
  self-splicing fitness (ln): -1.69 ± 0.16

## CUGAAGCAAUAUUACGAUUU
30 °C
  self-splicing fitness (ln): -3.34 ± 0.2
37 °C
  self-splicing fitness (ln): -1.6 ± 0.24

## CUGAAGCAAUAUUACGCAUA
30 °C
  self-splicing fitness (ln): -3.91 ± 0.3
37 °C
  self-splicing fitness (ln): -2.57 ± 0.32

## CUGAAGCAAUAUUACGCGCC
30 °C
  self-splicing fitness (ln): -3.07 ± 0.31

## CUGAAGCAAUAUUACGCGUU
30 °C
  self-splicing fitness (ln): -3.36 ± 0.18
37 °C
  self-splicing fitness (ln): -2.86 ± 0.24

## CUGAAGCAAUAUUACGCUCC
30 °C
  self-splicing fitness (ln): -2.74 ± 0.34

## CUGAAGCAAUAUUACGCUGA
30 °C
  self-splicing fitness (ln): -3.66 ± 0.24
37 °C
  self-splicing fitness (ln): -3.28 ± 0.43

## CUGAAGCAAUAUUACGGGCU
30 °C
  self-splicing fitness (ln): -3.56 ± 0.17
37 °C
  self-splicing fitness (ln): -3.15 ± 0.21

## CUGAAGCAAUAUUACGGGGU
30 °C
  self-splicing fitness (ln): -3.34 ± 0.24
37 °C
  self-splicing fitness (ln): -0.289 ± 0.17

## CUGAAGCAAUAUUACGGGUA
30 °C
  self-splicing fitness (ln): -3.21 ± 0.15
37 °C
  self-splicing fitness (ln): -3.96 ± 0.42

## CUGAAGCAAUAUUACGGGUC
30 °C
  self-splicing fitness (ln): -3.92 ± 0.4

## CUGAAGCAAUAUUACGGGUG
30 °C
  self-splicing fitness (ln): -0.0462 ± 0.047
37 °C
  self-splicing fitness (ln): 0.304 ± 0.071

## CUGAAGCAAUAUUACGGUUA
30 °C
  self-splicing fitness (ln): -4.2 ± 0.35
37 °C
  self-splicing fitness (ln): -2.52 ± 0.28

## CUGAAGCAAUAUUACGUACG
30 °C
  self-splicing fitness (ln): 0.694 ± 0.073
37 °C
  self-splicing fitness (ln): 0.514 ± 0.09

## CUGAAGCAAUAUUACGUCGU
30 °C
  self-splicing fitness (ln): -3.23 ± 0.26
37 °C
  self-splicing fitness (ln): -1.79 ± 0.21

## CUGAAGCAAUAUUACGUCUG
30 °C
  self-splicing fitness (ln): 0.302 ± 0.069
37 °C
  self-splicing fitness (ln): 0.352 ± 0.08

## CUGAAGCAAUAUUACGUGGG
30 °C
  self-splicing fitness (ln): -2.66 ± 0.095
37 °C
  self-splicing fitness (ln): -1.89 ± 0.11

## CUGAAGCAAUAUUACGUGUC
30 °C
  self-splicing fitness (ln): -2.53 ± 0.14
37 °C
  self-splicing fitness (ln): -2.81 ± 0.28

## CUGAAGCAAUAUUACGUUAU
30 °C
  self-splicing fitness (ln): -4.59 ± 0.23
37 °C
  self-splicing fitness (ln): -3.63 ± 0.37

## CUGAAGCAAUAUUACGUUCA
30 °C
  self-splicing fitness (ln): -1.87 ± 0.11
37 °C
  self-splicing fitness (ln): -0.567 ± 0.12

## CUGAAGCAAUAUUACGUUCG
30 °C
  self-splicing fitness (ln): 0.231 ± 0.06
37 °C
  self-splicing fitness (ln): -0.181 ± 0.082

## CUGCAGCAAUAUUACGAAAA
37 °C
  self-splicing fitness (ln): -2.19 ± 0.31

## CUGCAGCAAUAUUACGAAAC
37 °C
  self-splicing fitness (ln): -1.87 ± 0.37

## CUGCAGCAAUAUUACGAAAG
30 °C
  self-splicing fitness (ln): -1.42 ± 0.14
37 °C
  self-splicing fitness (ln): -1.47 ± 0.15

## CUGCAGCAAUAUUACGCAAG
30 °C
  self-splicing fitness (ln): -2.58 ± 0.18
37 °C
  self-splicing fitness (ln): -2.83 ± 0.44

## CUGCAGCAAUAUUACGCCUU
30 °C
  self-splicing fitness (ln): -2.87 ± 0.15
37 °C
  self-splicing fitness (ln): -2.94 ± 0.29

## CUGCAGCAAUAUUACGCGUG
30 °C
  self-splicing fitness (ln): -1.92 ± 0.12
37 °C
  self-splicing fitness (ln): -1.67 ± 0.16

## CUGCAGCAAUAUUACGGAGG
30 °C
  self-splicing fitness (ln): -2.5 ± 0.13
37 °C
  self-splicing fitness (ln): -2.03 ± 0.21

## CUGCAGCAAUAUUACGGGCC
37 °C
  self-splicing fitness (ln): -1.2 ± 0.5

## CUGCAGCAAUAUUACGGGGC
30 °C
  self-splicing fitness (ln): -3.94 ± 0.22
37 °C
  self-splicing fitness (ln): -1.83 ± 0.18

## CUGCAGCAAUAUUACGGGGU
30 °C
  self-splicing fitness (ln): -4.93 ± 0.45
37 °C
  self-splicing fitness (ln): -2.73 ± 0.2

## CUGCAGCAAUAUUACGUAUC
30 °C
  self-splicing fitness (ln): -4.37 ± 0.19
37 °C
  self-splicing fitness (ln): -2.73 ± 0.18

## CUGCAGCAAUAUUACGUCAA
30 °C
  self-splicing fitness (ln): -3.08 ± 0.17
37 °C
  self-splicing fitness (ln): -1.47 ± 0.12

## CUGCAGCAAUAUUACGUCUG
30 °C
  self-splicing fitness (ln): -2.34 ± 0.16
37 °C
  self-splicing fitness (ln): -0.738 ± 0.17
